Reference: the DeepSol protein solubility set

Assay: soluble on expression in E. coli; label from the status in PepcDB or PDB records

Row | Sequence | soluble on expression in E. coli
1 | MSLAIGDILRKSARRFPDRVALTDGGRSVTYTELERDANRFANALVARGLKPGAKISTVCNNSIEFVKALFGIHRAGLVWVPINTMLGPDDMGYILDHAGVKVAVIDDNLHGQPERRAALEARGIDLIAINLAGKAADTGLPVFDQLIEGLSEIEPDVAFDDRDLAMIIYTSGTTSRPKGAMHCHLAVTMAVMSNAIEMQLSRKDGITGQFPLFHCAAHVLLLSYLIVGGQMAIMRGFDPVACMEAIQRNKLTVFIGLPLMYQVILDHPRRKEFDLSSLRCCIYTMAPMPRPLLERAIAELCPTFVQPSGQTEMYPATTMSQPDRQLARFGNYWGESTLVNETAIMDDAGNLLPPGEVGEIVHRGPNVMLGYYKDPEATEAARKFGWHHTGDLALIDEHGEVLFLDRKKDMIKSGGENVASIKIEETLLAHPSVMNAAVVGLPHPQWGEAVSGFVKLKPGASATEAEIVEHCKKHLGGFQVPKLLRIVDEMPMTATGKLRKVELRNQFTDHFMLGQTEGHHHHHH | soluble
2 | MGHHHHHHSHMRPDCDGWLLLRKAPGGFMGPRWRRRWFVLKGHTLYWYRQPQDEKAEGLINVSNYSLESGHDQKKKYVFQLTHDVYKPFIFAADTLTDLSMWVRHLITCIS | not soluble
3 | VAWFTDEEGGRGRIEAGQLADLVVPDKDFFSCPEDDISFLVSELTMVGGRIVYAAGGFAALDDNPLPPAMPDWSPARTFKGYAAWGDPDGAGRHSLQRRAVAACGCANACGLHGHQHARAWGTALPVSDAKGFFGALGCSCWA | not soluble
4 | MSPWQHYQKDLTRDGFSHDPAQEIAVKALQRVYEDLTAAEEPNSLFGKLFTSFGLTSAPAPTKGLYLWGGVGRGKTYLMDTFFDTLPGNQKLRAHFHRFMHQLHLDLDALKGTRDPLLVIAKQMAAKYRVICFDEFFVSDITDAMLLGTLFQALFKEGVVLVATSNIIPDDLYKNGLQRARFLPAIALINQHCEVLNVDSGIDYRLRTLEQAEIYHHPLDEQADTNLLRYFGQLAPEAEISTEAIEIEGRAISIRQQAQGVLLADFRALCDGPRSQRDYMELARIYHTVLVSGIEQMGAFLTGDDIARRFLAMVDEFYERNVKLIVSAQVPLEDIYADGLLSFEFRRCRSRLIEMQSHDYLKSEHLPLEHHHHHH | not soluble
5 | QGAVRKATAAEIAALPRQKVELVDPPFVHAHSQVAEGGPKVVEFTMVIEEKKIVIDDAGTEVHAMAFNGTVPGPLMVVHQDDYLELTLINPETNTLMHNIDFHAATGALGGGGLTEINPGEKTILRFKATKPGVFVYHCAPPGMVPWHVVSGENGAIMVLPREGLHDGKGKALTYDKIYYVGEQDFYVPRDENGKYKKYEAPGDAYEDTVKVMRTLTPTHVVFNGAVGALTGDKAMTAAVGEKVLIVHSQANRDTRPHLIGGHGDYVWATGKFNTPPDVDQETWFIPGGAAGAAFYTFQQPGIYAYVNHNLIEAFELGAAAHFKVTGEWNDDLMTSVLAPSGT | soluble
6 | MSLATVLVTGATGFIGSHVVEALAPRHDVVGLASSVYPSPRDAVRHVRMTLPHPDLEELVATLRPDVVVHCAGVASVGLSMHSPGVDFQSGPPVVFQLFDAIRKAGLASKVVLLSSAAVYGNPQSLPVGEDAPRAPISPYGWHKGMCEDIAQEFHGTYGIRSAVLRIFSCYGAGLRKQLLWDAAHKLLEGAFVFDGTGDETRDFIHVRDVAAFVTRLVEGWPDGGCVVCNVASGEATRIADLLALLPEAFGLSGVVPVFTGRVRGGDPHHWRADISRARQMGLAPAVSLEEGVREYATWFFAVTGGEGHHHHHH | soluble
7 | MSAPINKVLIADDIEQECVDILKQNGIEVTVKTKQTKDELLVTLPQHDAVIVRSATKITAELLAASAGKLKLVGRAGTGVDNIDVPAASANKILVMNTPQANSRSAAELTCTLILSLSRHVPQAAASMKAGKWARKDFMGEEVYGRTLAVLGLGRIGSEVAVRLQAFGMKVIGFDPMVTKEQAEAKNIELLSLEQIWPQADYITVHVPLIKQTENLINKETLAKCKKGVRIINVARGGIVNEVDLVESLNAGHAKGAAFDVFEQEPPTFRELIDHPLVIATPHLGASTIDAQLRVASEIADNIVQYNKGTMLGVLNAREVLN | not soluble
8 | DVQLQESGPGLVKPSQSLSLTCTVTGYSITNNYAWNWIRQFPGNKLEWMGYINYSGTTSYNPSLKSRISITRDTSKNQFFLQLNSVTTEDTATYFCVRGYDYFAMDYWGQGTSVTVSSAKTTPPSVYPLAPGSAAQTNSMVTLGCLVKGYFPEPVTVTWNSGSLSSGVHTFPAVLQSDLYTLSSSVTVPSSTWPSETVTCNVAHPASSTKVDKKIVPRDCG | soluble
9 | MEEVSSEMEVEVQNRQLSDSSPAQNVKKFGLKNSIQTNFGSDYVFQIVPKIDWTAIAVSLSTNTVKLYSPVTGQYYGECKGHSDTVNQIAFSSDSAASPHVLHSCSSDGTIRSWDTRSFQQVSRIDTGNDQEIFSFSYGGAADNLLAGGCKEQVLLWDWRNSKQVACLEESHMDDVTQVHFVPNKPNKLLSASVDGLICLFNTEGDINDDDHLESVINVGTSIGKIGFLGDGYKKLWCLTHIETLSIWNWEDGSCEVNLEKARELASDSWTQDNVDYFVDCHCPGGEDLWVIGGTCAGTVGYFPVNYKQPGSIGTAEAILGGGHIDVVRSVLQMPGEYGGAAGLFGWTGGEDGRLCCWKSDEDATEINRSWTSSELVVKPPRNRKKNRHSPY | not soluble
10 | MAHHHHHHMSILCTISGQTPEEPVVSKTGYVFEKRLIEKHILNYGICPVSGEVLTLQDLYPLKNEQVVKPRPITASSIPGLLSILQTEWDAIISEMFTLRTHVNDIRNQLTHSLYQYDAATRVIAKLLKEKNDYKEEVKKLRNQILSIKSGNDLNEFEVGLSEDLLNEMQEVAKNLLMTRKKRNIEHVSSAEQWKEVTNTNEFDVHSAAIPGVTCLSLDINELKYSYYDDHKNHSFFSGGMDGNVYYVSLEQSKVLAKLQGHLKKVTAIVAHPKYSLCISGANDKTVRIWKGDVETNEFATAHVIAKHKDQITSLALHPMENYFVSSSKDNVWILNDLETSRSIKICKDTPSPFRQLAIHPDGIMLGIGCEDSNIHIFDMKSQEYKASLSGHTSHVSYISFSENGYYLASCSKDKTVKLWDLRKAQCFQTIDVEELPRSICFDFSGKYLSLAAGNDVHVFNFEAKTKAVLVNTLSAHTDAVTQTCFGSRTAYLLSSSMDKTVKVWS | not soluble
11 | MGSDKIHHHHHHMTEGMNAGLAMPPAALETSGGANQVGVRAYNERLVMSLVRRHGSLSKAEIARRSGLSAQTVTVIMRVLEREKLLVRGEPVRGRVGQPSVPMRLNPDAVYSFGVKIGRRSANLVLMDFVGTIRHEVRRTYPYPMPGLLLDFIVGGISDIEGRLSVAERARIAGVGIAAPFELWSWAEETGAPSEEMDVWRETDLKADVAARIGYPVFIQNDATSACAAELVFGVGPHYPDFVYFFLGSFVGGGIVLNSSLFSGRTGTAGAVGPLPVQRRDGKTVQLLKIASIFVLENLLRDYGQDSQSLWYSPSDWVDYGEPLEIWIRDTAAALAQAIVAAASIIDFSAAVIDGGFPQWVRQRLVVAIQEAARDLDLQGVLMPEIVEGAVGHQARSVGGASLPLFSRYLLDQNVLFKELL | not soluble
12 | MSLKPDNLPVTFGKNDVEIIARETLYRGFSSLDLYRFRHRLFNGQMSHEVRREIFERGHAAVLLPFDPVRDEVVLIEQIRIAAYDTSETPWLLEMVAGMIEEGESVEDVARREAIEEAGLIVKRTKPVLSFLASPGGTSERSSIMVGEVDATTASGIHGLADENEDIRVHVVSREQAYQWVEEGKIDNAASVIALQWLQLHHQALKNEWAEGGSHHHHHH | soluble
13 | MTKSVDTLLIPGPIILSGAVQKALDVPSLGHTSPEFVSIFQRVLKNTRAVFKSAAASKSQPFVLAGSGTLGWDIFASNFILSKAPNKNVLVVSTGTFSDRFADCLRSYGAQVDVVRPLKIGESVPLELITEKLSQNSYGAVTVTHVDTSTAVLSDLKAISQAIKQTSPETFFVVDAVCSIGCEEFEFDEWGVDFALTASQKAIGAPAGLSISLCSSRFMDYALNDSKNGHVHGYFSSLRRWTPIMENYEAGKGAYFATPPVQLINSLDVALKEILEEGLHKRWDLHREMSDWFKDSLVNGLQLTSVSRYPSNMSAHGLTAVYVADPPDVIAFLKSHGVVIAGGIHKDIGPKYIRIGHMGVTACNKNLPYMKNCFDLIKLALQRKK | soluble
14 | ILGYSYGYNGMEANVSKSDYEKHMSDLDTKKIKQDIKKAEKEADITIVMPQMGIEYQKKPTTEQVMLYHSMIKWGADIIFGGHPHVVEPSEVIKKDGQKKFIIYSMGNFISNQRLETVDDIWTE | not soluble
15 | MQDIHFRRHYVRHLPKEVSQNDIIKALASPLINDGMVVSDFADHVITREQNFPTGLPVEPVGVAIPHTDHKYVRQNAISVGILAEPVNFEDMGGEPDPVPVRVVFMLALGESNKQLNVLGWIMDVIQDEDFMQQLLVMNDDEIYQSIYTRISERGEV | soluble
16 | MSVSYKGTISKTHSVFKPEKGRYYIYGALGCPFTHRAILARSLKKLEPVLGLVLSHWQLDSKGARFLPAPHRPEKYKERFFTATGGIASAKLDESEELGDVNNDSARLFVDGAFDPVENISRLSELYYLNDPKYPGTKFTVPVLWDSKTRKIVNNESGDIIRILNSGVFDEFIQSEETNVIDLVPHDLIDEIDKNIKWVHPKINLGVYKVGLAENGKIYETEVKTLFENLQKMECVLKENYKRLEEQFSGNKQKILAKYFVLGQRLTEADIRLYPSIIRFDVVYVQHFKCNLKTIRDGFPYLHLWLINLYWNYAEFRFTTDFNHIKLFYIRMEVSRNKINQFGIVPLGPKPDISRL | soluble
17 | MKSKLKLHGFNNLTKTLSFNIYDICYAETPQDQQAYVEYINSVYDAERLTRILTDVVDIIGANILNIARQDYDPQGASVTILISEQPVTPTESQIEESPGPLPETILAHLDKSHITVHTYPEIHPVDGIATFRVDIDVSTCGVISPLKALNYLIHKFESDIVTVDYRVRGFTRDVEGKKHFIDHEINSIQNYLSEDTRNGYQMTDVNVYQENLFHTKMLLKQFELDNYLFGDATSNLSAEQREQVTAKVKHEMLEIFYGRNVAV | not soluble
18 | MKRLLLIIICTLGILSCGVPKEVTVPDKHLNYKDNIVLYNEKPYTGKVKLKKIAEKEQFEEGYISVKDGKLEGITDFKNDAAKTHFKFDVKSGKFNGEYILKHPLIGDFVMNFENGELKELKGKFPNDINQDLIFDKDGNVNGLIEQGGKQLDFQGGVAVKDTLKVKMFLDTETKQKLVTEVYEGDKLMAREENILLFTVKDFTEELLPVTGLQ | not soluble
19 | MLLQNILPFAHCLLRKALPEGGNALDGTAGNGHDTLFLAQTAGIRGKVWAFDIQPQALNNTRCRLQEAGYSNVRLILDGHENLKQYIPKPLDAAIFNFGWLPGGDKSLTTRTETSIAALSATLSLLKENGMLIAVLYPGHENGKQEAEAIEQWAKNLPQEQFAVLRYGFTNRKNSPPYLLVFEKLRQKLEHHHHHH | soluble
20 | MAHHHHHHMKGNKGANIAYPDKYHKVTEFFDREYGDLETCTKLNDCQKLLFYALRQQVEHGPCTSGAPFIWQVRERAKHDAWKQLGAMTKFEAMVHFVTHLEECIGGNVDWGEKLRDLNGMRDQQRVGVENGTGESNANEQTERGVSEAHWDADVQAHLQPSAENIEYLAREVMRLRGELQQVRPNRVVPTPIVVPPRKPIDYVSTKNIVPPARTLATVATRTALLNAQTTNNLVERQPQGWGEWFGLI | soluble
